The record followed here is patent US20240398767A1, “INHIBITORS OF THE MTDH-SND1 PROTEIN COMPLEX FOR CANCER THERAPY” (The Trustees of Princeton University, priority 2021, published 2024).

The chains are these.
T1: SND1 (endogenous, SCP28 breast cancer cell lysate) (human, UniProt Q7KZF4 2-910)
T1 construct: Detected by Western blot after MTDH immunoprecipitation; also called Staphylococcal nuclease domain-containing 1
T1 sequence (looked up): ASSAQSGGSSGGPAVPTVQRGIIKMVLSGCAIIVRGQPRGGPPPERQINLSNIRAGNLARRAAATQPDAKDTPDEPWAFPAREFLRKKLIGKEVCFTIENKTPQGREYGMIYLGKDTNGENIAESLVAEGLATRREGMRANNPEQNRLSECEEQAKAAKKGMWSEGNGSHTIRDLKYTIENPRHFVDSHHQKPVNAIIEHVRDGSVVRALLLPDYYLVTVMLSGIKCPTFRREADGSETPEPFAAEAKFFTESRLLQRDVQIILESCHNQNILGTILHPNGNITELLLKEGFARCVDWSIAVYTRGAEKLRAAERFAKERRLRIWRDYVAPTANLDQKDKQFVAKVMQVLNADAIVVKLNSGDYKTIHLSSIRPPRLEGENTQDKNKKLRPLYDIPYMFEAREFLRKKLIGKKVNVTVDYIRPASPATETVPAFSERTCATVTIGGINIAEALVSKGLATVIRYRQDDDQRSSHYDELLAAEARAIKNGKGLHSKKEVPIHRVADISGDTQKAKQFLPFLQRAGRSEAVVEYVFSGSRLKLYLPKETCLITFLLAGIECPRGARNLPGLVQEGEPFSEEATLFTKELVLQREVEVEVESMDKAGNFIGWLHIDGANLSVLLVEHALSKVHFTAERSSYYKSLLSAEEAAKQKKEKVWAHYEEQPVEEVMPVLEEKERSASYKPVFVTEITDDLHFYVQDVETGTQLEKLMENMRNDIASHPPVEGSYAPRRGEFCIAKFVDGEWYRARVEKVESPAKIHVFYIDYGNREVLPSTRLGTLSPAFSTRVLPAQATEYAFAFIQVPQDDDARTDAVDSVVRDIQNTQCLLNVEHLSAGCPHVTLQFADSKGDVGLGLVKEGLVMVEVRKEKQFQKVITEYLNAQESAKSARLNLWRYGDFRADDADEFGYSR

T2: SND1-NLuc
T2 chain: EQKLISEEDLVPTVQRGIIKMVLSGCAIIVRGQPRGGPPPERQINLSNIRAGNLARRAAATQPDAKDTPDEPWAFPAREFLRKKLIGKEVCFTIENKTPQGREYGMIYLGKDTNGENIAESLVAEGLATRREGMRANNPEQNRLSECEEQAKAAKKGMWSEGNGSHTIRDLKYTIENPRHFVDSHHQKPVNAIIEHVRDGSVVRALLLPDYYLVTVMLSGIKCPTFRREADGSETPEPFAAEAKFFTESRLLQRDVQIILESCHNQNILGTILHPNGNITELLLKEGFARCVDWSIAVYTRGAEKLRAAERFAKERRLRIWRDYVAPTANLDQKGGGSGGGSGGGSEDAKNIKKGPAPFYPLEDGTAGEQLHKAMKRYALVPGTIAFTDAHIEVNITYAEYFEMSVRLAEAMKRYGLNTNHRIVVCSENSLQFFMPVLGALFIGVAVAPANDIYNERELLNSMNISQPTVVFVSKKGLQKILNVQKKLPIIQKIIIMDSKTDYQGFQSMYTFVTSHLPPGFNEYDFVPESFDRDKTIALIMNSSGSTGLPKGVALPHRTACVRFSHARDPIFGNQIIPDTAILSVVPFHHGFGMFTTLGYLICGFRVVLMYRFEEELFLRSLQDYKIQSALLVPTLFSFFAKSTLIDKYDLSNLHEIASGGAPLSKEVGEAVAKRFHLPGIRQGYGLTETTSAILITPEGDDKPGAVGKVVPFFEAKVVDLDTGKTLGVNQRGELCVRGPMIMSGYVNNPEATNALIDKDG

B1: MTDH (endogenous, SCP28 breast cancer cell lysate) (other, human, UniProt Q86UE4 1-582, looked up)
chain: MAARSWQDELAQQAEEGSARLREMLSVGLGFLRTELGLDLGLEPKRYPGWVILVGTGALGLLLLFLLGYGWAAACAGARKKRRSPPRKREEAAAVPAAAPDDLALLKNLRSEEQKKKNRKKLSEKPKPNGRTVEVAEGEAVRTPQSVTAKQPPEIDKKNEKSKKNKKKSKSDAKAVQNSSRHDGKEVDEGAWETKISHREKRQQRKRDKVLTDSGSLDSTIPGIENTITVTTEQLTTASFPVGSKKNKGDSHLNVQVSNFKSGKGDSTLQVSSGLNENLTVNGGGWNEKSVKLSSQISAGEEKWNSVSPASAGKRKTEPSAWSQDTGDANTNGKDWGRSWSDRSIFSGIGSTAEPVSQSTTSDYQWDVSRNQPYIDDEWSGLNGLSSADPNSDWNAPAEEWGNWVDEERASLLKSQEPIPDDQKVSDDDKEKGEGALPTGKSKKKKKKKKKQGEDNSTAQDTEELEKEIREDLPVNTSKTRPKQEKAFSLKTISTSDPAEVLVKNSQPIKTLPPATSTEPSVILSKSDSDKSSSQVPPILQETDKSKSNTKQNSVPPSQTKSETSWESPKQIKKKKKARRET
notes: Pulled down with anti-MTDH antibody and Protein-A/G beads; also called metadherin
B2: wild type MTDH (MTDH-WT) minimal peptide (peptide)
peptide: PNSDWNAPAEEWGNW
notes: also called MTDH-WT peptide; Pep-WT
B3: CLuc-MTDH (other)
chain: MSGYVNNPEATNALIDKDGWLHSGDIAYWDEDEHFFIVDRLKSLIKYKGYQVAPAELESILLQHPNIFDAGVAGLPDDDAGELPAAVVVLEHGKTMTEKEIVDYVASQVTTAKKLRGGVVFVDEVPKGLTGKLDARKIREILIKAKKGGKSKLGGGSGGGSSSADPNSDWNAPAEEWGNWVDEYPYDVPDYA
notes: Expressed in HEK293T cells and used as cell lysate; also called CLuc-MTDH-HA; MTDH-CLuc
B4: mutant MTDH (MTDH-MT) peptide (peptide)
peptide: PNSDANAPAEEAGNW
notes: also called Pep-MT; MTDH mutant peptide
B5: SND1-NLuc (other)
chain: T2 chain
notes: Expressed in HEK293T cells and used as cell lysate; also called Myc-SND1-NLuc; split-luc component

The target in test [1] is T1, SND1 (endogenous, SCP28 breast cancer …). The test is described as follows: Co-IP from SCP28 lysate with 2 µg MTDH antibody. On the procedure: (§1) FIG. 10E, Schematic diagram of Co-IP based confirmation of MTDH-SND1 inhibitory compounds (left). SCP28 cells were lysed for IP assay.2 μg of MTDH antibody together with 500 μM of MTDH wild type (Pep-WT) or mutant (Pep-MT) peptides were added into each 1 ml of samples. Red star indicates wild type MTDH peptide competing off SND1 that binds to MTDH.
(§2) Co-immunoprecipitation assay (Co-IP), which is a commonly used standard test to determine protein-protein interaction, was next employed to validate the candidates. Lysates of breast cancer cell line SCP28, a single cell-derived subline from the MDA-MB-231 TNBC cell line²⁵, was immunoprecipitated with anti-MTDH antibody alone or together with inhibitors (FIG. 3F and FIG. 10E). The samples were then incubated with Protein-A/G beads to pull down MTDH, followed by Western blot analysis to detect SND1. In such co-TP experiment, MTDH-WT but not MTDH-MT peptide blocks MTDH-SND1 interaction (FIG. 10E). […] Using multiple screening and validation platforms, two classes of compounds, C26s and C32s, were obtained that inhibit MTDH-SND1 interaction.

The target is the same in test [2]. Briefly: Co-IP competition, SCP28 lysate, anti-MTDH antibody, Western blot for SND1. The procedure:
as §1, §2

In test [3] the target is T2, SND1-NLuc. Briefly: split-luciferase assay (inhibition of SND1-NLuc/CLuc-MTDH interaction).
Test [4] addresses B5. The test is described as follows: split-luciferase competition assay, 50 µM peptide, competitor of CLuc-MTDH. On the procedure: (§3) Luciferase-based screening. Seed HEK293T cells on 3×15 cm dish at 18-24 hr before transfection with 7-8×10⁶ cells per dish targeting 70-80% confluence when start transfection. 20 μg of pCDNA3.1-SND1-NLuc, pCDNA3.1-CLuc-MTDH, or 2 μg of pCDNA3.1-NLuc-CLuc plasmids that described above were transfected to each dish. 72 hr after transfection the cells were lysed with 5 ml of luciferase lysis buffer (2 mM EDTA, 20 mM DTT, 10% glycerol, 1% Triton X-100, 25 mM Tris base, adjusted to pH7.8 with H₃PO₄) at 4° C. for 20 min. The protein lysates were centrifuged at 13,000 rpm for 10 min, and the supernatant were collected.
(§4) For small chemical compound screening, white, flat-bottom, solid 384-well plates were used. Compounds were added into each well as 0.1 μl of 10 mM DMSO solution (or same amount of DMSO, serve as control). The first and last columns were free, and MTDH wild type ([…]) or mutant ([…]) peptides were added as positive and negative controls right before screening. Same amount of MTDH-CLuc and SND1-NLuc were pre-mixed at 4° C. for 30 min to generate split-luc. 5 μl of split- or linked-luc was added into each well. […] The plates were incubated at 4° C. for 1 hr and luciferase activity at each well was measured.

The target in test [5] is B5. The test is described as follows: split-luciferase complementation, 293T cells. The procedure:
as §3
(§5) For small chemical compound screening, white, flat-bottom, solid 384-well plates were used. Compounds were added into each well as 0.1 μl of 10 mM DMSO solution (or same amount of DMSO, serve as control). The first and last columns were free, and MTDH wild type ([…]) or mutant ([…]) peptides were added as positive and negative controls right before screening. Same amount of MTDH-CLuc and SND1-NLuc were pre-mixed at 4° C. for 30 min to generate split-luc. 5 μl of split- or linked-luc was added into each well. 15 μl of luciferase assay buffer (25 mM Glycylglycine pH 7.8, 15 mM K₃PO₄ pH 7.8, 15 mM MgSO₄, 4 mM EGTA, 2 mM ATP added just before use, 10 mM DTT added just before use and 1 mM D-Luciferin added just before use) was then added into each well to get a 20 μl reaction system with 50 μM of compounds (peptides) in each well. The plates were incubated at 4° C. for 1 hr and luciferase activity at each well was measured.

Test [6] has as its target T3, NLuc (firefly luciferase N-terminal fragment, 1-416aa) (UniProt P08659 1-416 = luciferase).
T3 construct: range 1-416; Fragment alone, without SND1
The test is described as follows: split-luciferase complementation, 293T cells. The procedure: as §3, §5

In test [7] the target is B5. Briefly: split-luciferase competition assay, HEK293T lysates. On the procedure: as §3, §4
The target in test [8] is T4, CLuc (firefly luciferase C-terminal fragment, 398-550aa) (UniProt P08659 398-550 = luciferase).
T4 construct: Fragment alone, without MTDH
The test is described as follows: split-luciferase complementation, 293T cells. On the procedure:
as §3, §5

With B1, the binding result in test [1] is listed as “binds”. By IC50 is commonly meant the concentration needed to halve the response being measured. Read a high IC50 as a need for much substance. Regarding B2, the binding result (in test [2]; in the test with SND1-NLuc [4]) was “binds” each time. For the same molecule, in the test with SND1-NLuc [3], the IC50 came out at 1200 nM.

Consider B3, for which the figures for the binding result (in the test with SND1-NLuc [5]; in test [6]) were “binds” and “no binding”, respectively. Consider B4, for which the binding result in test [2] is recorded as “no binding (tested: 500 µM)”; in the test with SND1-NLuc [7], “no binding (tested: 50 µM)”. Turning to B5, the binding result in test [8] was “no binding”.
